{"source": "patent US11493476B2", "about": "“Charge detector and process for sensing a charged analyte” (Government of the United States of America, as represented …, priority 2016, dated 2022)", "type_in_all_cases": "biochemical", "key": {"Cdk5/p25 [1]": {"target": "T1, Cdk5/p25 (Homo sapiens, UniProt Q00535)", "T1 sequence (Q00535 whole entry, species assumed)": "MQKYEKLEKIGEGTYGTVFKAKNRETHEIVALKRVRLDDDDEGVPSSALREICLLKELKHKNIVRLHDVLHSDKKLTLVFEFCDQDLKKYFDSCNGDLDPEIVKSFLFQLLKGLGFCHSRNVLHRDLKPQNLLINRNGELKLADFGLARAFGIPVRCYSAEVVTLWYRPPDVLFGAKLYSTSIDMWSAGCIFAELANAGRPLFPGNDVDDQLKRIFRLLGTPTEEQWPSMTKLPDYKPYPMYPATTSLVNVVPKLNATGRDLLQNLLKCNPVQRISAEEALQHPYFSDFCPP", "T1 sequence (Q15078 99-307 partner limits assumed, species assumed)": "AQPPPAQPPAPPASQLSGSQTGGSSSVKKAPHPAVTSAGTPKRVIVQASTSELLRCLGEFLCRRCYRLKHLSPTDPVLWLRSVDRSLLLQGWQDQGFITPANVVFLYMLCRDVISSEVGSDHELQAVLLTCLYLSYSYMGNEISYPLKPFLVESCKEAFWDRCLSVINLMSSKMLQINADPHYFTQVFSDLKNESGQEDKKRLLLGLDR", "experiment": "Ionic liquid-gated FET measurement of solution pH change during Cdk5/p25-catalysed phosphorylation of histone H1, steady state", "conditions": "FET measurements, non-linear regression, measured differentially against control without ATP", "description": "With regard to enzyme activity and kinetics, the ultrasensitive FET devices measured activity and kinetics of proline directed kinase Cdk5. Under normal physiological conditions, Cdk5 is tightly regulated by either the p35 or p39 […] proteins. Oxidative stress causes a 10 kDa membrane anchored fragment of p35 to be cleaved, forming the pathological activator p25, resulting in deregulation and delocalization of the complex to the cytosol. […]\nCdk5 mediated phosphorylation results in the release of a proton during ATP hydrolysis and the transfer of a single phosphate group to either a serine or threonine residue immediately preceding a proline. Here, ionic liquid-gated FETs detected small changes in the solution pH during phosphorylation of the substrate protein, histone H1.\nIn each case, Vt,BG was estimated from an ID-VBG plot. To account for instrument drift, each data point in the figure was measured differentially with a control sample that was identical to the measured vials except for the absence of ATP, thereby inhibiting the phosphorylation reaction. […]\n[formula] where k is a constant, [H1] is the concentration of histone H1 and γ is a scaling constant. For the FET measurements in FIG. 54, we estimated k=17.5±1.3 μM from a non-linear regression of the model to the measured data, consistent with previously published activity measurements for the pathological Cdk5/p25 complex. […]"}, "Cdk5/p25 [2]": {"target": "T1, Cdk5/p25", "experiment": "Radioactively labeled γ-32P-ATP enzyme activity assay", "conditions": "radioactively labeled γ-32P-ATP assay"}, "Cdk5/p25 [3]": {"target": "T1, Cdk5/p25", "experiment": "FET time-series measurement of enzyme catalyzed phosphorylation (reaction kinetics)", "conditions": "Cdk5/p25 3.8 μM; [H1] 9.1, 12.7, 18.2 μM; independent of the histone H1 concentration", "description": "With reference to FIG. 53, FIG. 54, FIG. 55, and FIG. 56, ionic liquid-gate field-effect transistors (FET) were used for label-free enzyme activity and kinetics measurements. The proline directed kinase Cdk5 catalyzes the phosphorylation of substrate proteins (e.g., histone H1) in the presence of an activator (e.g., p25) and adenosine triphosphate (ATP). The hydrolysis of ATP results in the transfer of a single phosphate group to either a serine (Ser) or threonine (Thr) residue in the substrate protein and the release of a proton into solution, resulting in a change in solution pH. Moreover, ionic liquid-gate FETs measured change in solution pH as a function of the histone H1 concentration ([H1]) inferentially provide activity of Cdk5 under steady-state conditions. FET measurements were in quantitative agreement with a complementary assay that used radioactively labeled 32P-ATP as a reporter of Cdk5 activity. Time-series measurements of enzyme catalyzed phosphorylation as a function of [H1] […] The solid lines depict the reaction kinetics model that describes the time course of phosphorylation, while the dashed lines represent an estimate of the reaction velocity during the first 100 s after a change in the signal was detected.\nThe concentration of the Cdk5/p25 complex in these measurements was 3.8 μM (5-fold lower than the quantity used in FIG. 54 and FIG. 55). […]"}}}
{"substance": "histone H1", "values": [{"measurement": "k (constant of kinase activity model versus histone H1 concentration)", "setting": "Cdk5/p25 [1]", "value": "17.5 ± 1.3", "unit": "µM"}, {"measurement": "k (constant of kinase activity model versus histone H1 concentration)", "setting": "Cdk5/p25 [2]", "value": "12.1 ± 2.3", "unit": "µM"}, {"measurement": "rate constant k1 (first order rate law)", "setting": "Cdk5/p25 [3]", "value": "0.18±0.02", "unit": "per min"}]}
